Data: patent US20200308228A1 (KING ABDULAZIZ UNIVERSITY, published 2020)
“Also recorded” adds a separate entry of the source. Where no end group is shown, it is not given here. [ ]: non-standard residue; d: D form. The star is where a group is joined. FITC = O=C1OC2(c3ccc(O)cc3Oc3cc(O)ccc32)c2ccc(NC(=S)*)cc21; hI = homoisoleucine, (2S)-2-amino-4-methylhexanoic acid; Chg = N[C@H](C(=O)O)C1CCCCC1; Ahx = NCCCCCC(=O)O

Tests used:
[1] = molecular target: T1, NS3 of SEQ ID NO: 3 (NS3 domain of Hepatitis C virus genotype 4a fused to the T7 tag at the N-terminus and … (Hepatitis C virus (genotype 4a))); assay: fluorescence anisotropy, 0.1 µM labelled peptide titrated with NS3
T1 construct: also called HCV NS3 genotype 4a
T1 chain: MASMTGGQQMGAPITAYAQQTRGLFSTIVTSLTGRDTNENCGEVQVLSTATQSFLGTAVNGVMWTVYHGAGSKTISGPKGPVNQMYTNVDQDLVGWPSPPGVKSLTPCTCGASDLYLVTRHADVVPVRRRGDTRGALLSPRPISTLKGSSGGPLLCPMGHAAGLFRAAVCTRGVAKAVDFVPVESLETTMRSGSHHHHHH

[2] = molecular target: T1, NS3 of SEQ ID NO: 3 (NS3 domain of …); assay: differential static light scattering (DSLS), NS3:peptide 1:2, 2 h at room temperature
[3] = molecular target: T1, NS3 of SEQ ID NO: 3 (NS3 domain of …); assay: differential static light scattering (DSLS)
[4] = molecular target: T1, NS3 of SEQ ID NO: 3 (NS3 domain of …); assay: competition fluorescence anisotropy against 0.1 µM labelled NS4A peptide with 1.8 µM NS3
[5] = molecular target: T2, Pep-15 of SEQ ID NO: 20 (KKGSx[…])
T2 chain: KKGSGVIVGRIVLSGKK

B1: isothiocyanate-labeled NS4A peptide of SEQ ID NO: 25 (FITC-NS4A) (peptide)
peptide: {FITC}-[Ahx]KKGSVVIVGRIVLSGKK
notes: also called fluorescein isothiocyanate-NS4A
Kd [1]: 0.169 µM

B2: NS4A peptide of SEQ ID NO: 4 (KK-[…]-KK, comprising the native NS4A21-33 of SEQ ID NO: 2) (peptide)
peptide: KKGSVVIVGRIVLSGKK
notes: Synthetic peptide; the KK at each end is not part of NS4A
ΔTagg [2]: 2.83 ° C.

B3: Pep-14 of SEQ ID NO: 19 (KKGSh[…]) (peptide)
peptide: KKGS[hI]VIVGRIVLSGKK
binding result [3]: binds

B4: Pep-13 of SEQ ID NO: 18 (KKGSAVIVGRIVLSGKK) (peptide)
peptide: KKGSAVIVGRIVLSGKK
binding result [3]: binds

B5: Pep-15 of SEQ ID NO: 20 (KKGSx[…]) (peptide)
peptide: KKGS[Chg]VIVGRIVLSGKK
Kd [4]: 0.07 µM | Tagg shift [3]: 3.9 ° C.

B6: Pep-12 of SEQ ID NO: 17 (KKGSWVIVGRIVLSGKK) (peptide)
peptide: KKGSWVIVGRIVLSGKK
binding result [3]: binds

B7: Pep-11 of SEQ ID NO: 16 (KKGSFVIVGRIVLSGKK) (peptide)
peptide: KKGSFVIVGRIVLSGKK
binding result [3]: binds

B8: NS3 of SEQ ID NO: 3 (NS3 domain of Hepatitis C virus genotype 4a fused to the T7 tag at the N-terminus and 6-His tag at the C-terminus) (protein)
chain: T1 chain
protease activity (cleavage of 5FAM-substrate of SEQ ID NO: 22, fluorescence at 520 nm) [5]: maintained 69.7% of the enzyme activity during the first 60 minutes; also recorded: After 60 minutes, it was observed that the activity of the enzyme completely disappeared
